Test results as given in paper doi:10.1101/2025.02.06.636796.

Key:
[1] = biological target: Taxol-stabilized microtubules of mouse brain tubulin (untreated, wild-type) (mouse) (UniProt P68369); assay: cell lysate-based TIRF microscopy on immobilised microtubules
[2] = biological target: Taxol-stabilized microtubules of mouse brain tubulin (untreated, wild-type) (mouse) (UniProt P68369); assay: FRAP in TIRF microscopy on immobilised microtubules

cumulative fluorescent signal on MTs [1]: 395
density on MTs at 10x lysate dilution [1]: 2980
density on MTs at 100x lysate dilution [1]: 731
fluorescent intensity on microtubules [1]: 194
fluorescence recovery at 6.5 min after photobleaching [2]: 20%
Substance: YFP-Trim69 wild type (Tripartite motif protein 69) (from UniProt Q86WT6 1-500) (natural protein)
